Assay results reported in paper PMC8113585.

Molecular target: SARS-CoV-2 nucleocapsid (N) protein, full-length;mAb nCoV396 (human IgG1) (SARS-CoV-2;Homo sapiens) (UniProt P0DTC9)
Experiment: EMSA

AAGUUCGUUU [TRS RNA]
Kd: 15.1 µM
